Values of other authors as cited in doi:10.1101/2025.11.30.690581.

Columns and labels:
Lys92 = Lys92 (UniProt position 174, RGLAYKYADGK); assay: stability; settings: apparent pKa of the native-state ensemble in the reference Δ+PHS background
Lys66 = Lys66 (UniProt position 148, FTKKMKENAKK); assay: stability; settings: apparent pKa of the native-state ensemble in the reference Δ+PHS background

Substance	pKa (Lys92)	pKa (Lys66)
Staphylococcal nuclease Δ+PHS I92K (reference protein with Lys-92) (Staphylococcus aureus; G50F;V51N;P117G;H124L;S128A;del44-49;I92K)	5.2	
Staphylococcal nuclease Δ+PHS V66K (reference protein with Lys-66) (Staphylococcus aureus; G50F;V51N;P117G;H124L;S128A;del44-49;V66K)		5.7
